Laboratory results as given in US20220042033A1, “COMPOSITION AND METHOD FOR CONFERRING AND/OR ENHANCING TOLERANCE AGAINST HERBICIDES BY USING VARIANTS OF PPO” (FarmHannong Co., Ltd., priority 2017, published 2022).

What was measured:
[1] = test system: MxPPO; test: Herbicide tolerance test of MxPPO wild type and variants in PPO-deficient E. coli BT3(ΔPPO), growth on herbicide-containing LB agar; format: cell-based, Myxococcus xanthus; conditions: relative to MxPPO WT
Method: Then, the extent of tolerance was evaluated.

[2] = test system: MxPPO; test: PPO enzyme activity of purified MBP-fused MxPPO wild type and variants; format: biochemical, Myxococcus xanthus; conditions: PPO enzyme activity of purified MxPPO protein, relative to wild type
[3] = dark, up to 1000 μM (FIGS. 21-22)
[4] = dark, up to 4000 μM (FIGS. 23-24)

Molecule	Herbicide tolerance, flumioxazin ([1]; light, up to 400 μM (FIGS. 15-17))	Herbicide tolerance, sulfentrazone ([1]; light, up to 1000 μM (FIGS. 18-20))	Activity (%) [2]	Herbicide tolerance, flumioxazin [1, 3]	Herbicide tolerance, sulfentrazone [1, 4]
I168C + M365V: MxPPO (SEQ ID NO: 3) variant (protein, Synthetic (Protoporphyrinogen IX oxidase (MxPPO) of Myxococcus xanthus)) MHHMPRTTGMNVAVVGGGISGLAVAHHLRSRGTDAVLLESSARLGGAVGTHALAGYLVEQGPNSFLDREPATRALAAALNLEGRIRAADPAAKRRYVYTRGRLRSVPASPPAFLASDILPLGARLRVAGELFSRRAPEGVDESLAAFGRRHLGHRATQVLLDAVQTGCYAGDVEQLSVAATFPMLVKMEREHRSLILGAIRAQKAQRQAALPAGTAPKLSGALSTFDGGLQVLIDALAASLGDAAHVGARVEGLAREDGGWRLIIEEHGRRAELSVAQVVLAAPAHATAKLLRPLDDALAALVAGIAYAPIAVVHLGFDAGTLPAPDGFGFLVPAEEQRRMLGAIHASTTFPFRAEGGRVLYSCVVGGARQPGLVEQDEDALAALAREELKALAGVTARPSFTRVFRWPLGIPQYNLGHLERVAAIDAALQRLPGLHLIGNAYKGVGLNDCIRNAAQLADALVAGNTSHAP	+ (1-9 fold higher tolerance)	+ (1-9 fold higher tolerance)	42%	–	–
R95A + I168C + A170C + I311M + M365V: MxPPO (SEQ ID NO: 3) variant (protein, Synthetic (Protoporphyrinogen IX oxidase (MxPPO) of Myxococcus xanthus)) MHHMPRTTGMNVAVVGGGISGLAVAHHLRSRGTDAVLLESSARLGGAVGTHALAGYLVEQGPNSFLDREPATRALAAALNLEGRIRAADPAAKRAYVYTRGRLRSVPASPPAFLASDILPLGARLRVAGELFSRRAPEGVDESLAAFGRRHLGHRATQVLLDAVQTGCYCGDVEQLSVAATFPMLVKMEREHRSLILGAIRAQKAQRQAALPAGTAPKLSGALSTFDGGLQVLIDALAASLGDAAHVGARVEGLAREDGGWRLIIEEHGRRAELSVAQVVLAAPAHATAKLLRPLDDALAALVAGIAYAPMAVVHLGFDAGTLPAPDGFGFLVPAEEQRRMLGAIHASTTFPFRAEGGRVLYSCVVGGARQPGLVEQDEDALAALAREELKALAGVTARPSFTRVFRWPLGIPQYNLGHLERVAAIDAALQRLPGLHLIGNAYKGVGLNDCIRNAAQLADALVAGNTSHAP	–	–	17%	+ (1-9 fold higher tolerance)	+++ (100-999 fold higher tolerance)
I168C + A170C + I311M + M365I: MxPPO (SEQ ID NO: 3) variant (protein, Synthetic (Protoporphyrinogen IX oxidase (MxPPO) of Myxococcus xanthus)) MHHMPRTTGMNVAVVGGGISGLAVAHHLRSRGTDAVLLESSARLGGAVGTHALAGYLVEQGPNSFLDREPATRALAAALNLEGRIRAADPAAKRRYVYTRGRLRSVPASPPAFLASDILPLGARLRVAGELFSRRAPEGVDESLAAFGRRHLGHRATQVLLDAVQTGCYCGDVEQLSVAATFPMLVKMEREHRSLILGAIRAQKAQRQAALPAGTAPKLSGALSTFDGGLQVLIDALAASLGDAAHVGARVEGLAREDGGWRLIIEEHGRRAELSVAQVVLAAPAHATAKLLRPLDDALAALVAGIAYAPMAVVHLGFDAGTLPAPDGFGFLVPAEEQRRMLGAIHASTTFPFRAEGGRVLYSCIVGGARQPGLVEQDEDALAALAREELKALAGVTARPSFTRVFRWPLGIPQYNLGHLERVAAIDAALQRLPGLHLIGNAYKGVGLNDCIRNAAQLADALVAGNTSHAP	–	–	44%	+ (1-9 fold higher tolerance)	+ (1-9 fold higher tolerance)
A170C + I311M + L332T + M365I: MxPPO (SEQ ID NO: 3) variant (protein, Synthetic (Protoporphyrinogen IX oxidase (MxPPO) of Myxococcus xanthus)) MHHMPRTTGMNVAVVGGGISGLAVAHHLRSRGTDAVLLESSARLGGAVGTHALAGYLVEQGPNSFLDREPATRALAAALNLEGRIRAADPAAKRRYVYTRGRLRSVPASPPAFLASDILPLGARLRVAGELFSRRAPEGVDESLAAFGRRHLGHRATQVLLDAVQTGIYCGDVEQLSVAATFPMLVKMEREHRSLILGAIRAQKAQRQAALPAGTAPKLSGALSTFDGGLQVLIDALAASLGDAAHVGARVEGLAREDGGWRLIIEEHGRRAELSVAQVVLAAPAHATAKLLRPLDDALAALVAGIAYAPMAVVHLGFDAGTLPAPDGFGFTVPAEEQRRMLGAIHASTTFPFRAEGGRVLYSCIVGGARQPGLVEQDEDALAALAREELKALAGVTARPSFTRVFRWPLGIPQYNLGHLERVAAIDAALQRLPGLHLIGNAYKGVGLNDCIRNAAQLADALVAGNTSHAP	–	–	52%	+ (1-9 fold higher tolerance)	–
R95A + A170C + L332T + M365I: MxPPO (SEQ ID NO: 3) variant (protein, Synthetic (Protoporphyrinogen IX oxidase (MxPPO) of Myxococcus xanthus)) MHHMPRTTGMNVAVVGGGISGLAVAHHLRSRGTDAVLLESSARLGGAVGTHALAGYLVEQGPNSFLDREPATRALAAALNLEGRIRAADPAAKRAYVYTRGRLRSVPASPPAFLASDILPLGARLRVAGELFSRRAPEGVDESLAAFGRRHLGHRATQVLLDAVQTGIYCGDVEQLSVAATFPMLVKMEREHRSLILGAIRAQKAQRQAALPAGTAPKLSGALSTFDGGLQVLIDALAASLGDAAHVGARVEGLAREDGGWRLIIEEHGRRAELSVAQVVLAAPAHATAKLLRPLDDALAALVAGIAYAPIAVVHLGFDAGTLPAPDGFGFTVPAEEQRRMLGAIHASTTFPFRAEGGRVLYSCIVGGARQPGLVEQDEDALAALAREELKALAGVTARPSFTRVFRWPLGIPQYNLGHLERVAAIDAALQRLPGLHLIGNAYKGVGLNDCIRNAAQLADALVAGNTSHAP	–	–	35%	+ (1-9 fold higher tolerance)	+++ (100-999 fold higher tolerance)
I168C + A170C + L332T + M365V: MxPPO (SEQ ID NO: 3) variant (protein, Synthetic (Protoporphyrinogen IX oxidase (MxPPO) of Myxococcus xanthus)) MHHMPRTTGMNVAVVGGGISGLAVAHHLRSRGTDAVLLESSARLGGAVGTHALAGYLVEQGPNSFLDREPATRALAAALNLEGRIRAADPAAKRRYVYTRGRLRSVPASPPAFLASDILPLGARLRVAGELFSRRAPEGVDESLAAFGRRHLGHRATQVLLDAVQTGCYCGDVEQLSVAATFPMLVKMEREHRSLILGAIRAQKAQRQAALPAGTAPKLSGALSTFDGGLQVLIDALAASLGDAAHVGARVEGLAREDGGWRLIIEEHGRRAELSVAQVVLAAPAHATAKLLRPLDDALAALVAGIAYAPIAVVHLGFDAGTLPAPDGFGFTVPAEEQRRMLGAIHASTTFPFRAEGGRVLYSCVVGGARQPGLVEQDEDALAALAREELKALAGVTARPSFTRVFRWPLGIPQYNLGHLERVAAIDAALQRLPGLHLIGNAYKGVGLNDCIRNAAQLADALVAGNTSHAP	–	–	40%	+ (1-9 fold higher tolerance)	++ (10-99 fold higher tolerance)
